Test results as given in the RNAGym collection of RNA variant scans (doi:10.1073/pnas.2313332121).

B1: TPR t1 (parent)
chain: GACCAAUCUGCCCUCAGAGCUCGAGAACAUCUUCGGAUGCAGAGGAGGCAGGCUUCGGUGGCGCGAUAGCGCCAACGUCCUCAACCUCCAAUGCAUCCCACCACAUGAUGAUGCCUGAAGAGCCUUGGUUUUUUG

Variants of: B1
Assay: polymerase ribozyme fitness, log enrichment relative to wild type (log ratio); higher = more active; in vitro selection for triplet polymerase activity
Outline: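 Libraries of mutants in each subunit of a heterodimeric triplet polymerase ribozyme were generated by PCR and transcribed. In triplicate, each went through one in vitro selection round: annealing with biotinylated primer, partner subunit and triplets; frozen incubation at −7 °C; gel excision of extended constructs; streptavidin-bead capture; RT-PCR. Fitness, taken from Illumina sequencing of input and output libraries, is the logarithm of a genotype's enrichment over wild-type enrichment, averaged across replicates with inverse-variance weights. The logarithm is base 2, and genotypes needed ≥10 input reads and ≥1 read per output to be kept.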

In order of falling “polymerase ribozyme fitness (log ratio)” value:
1. A46G C49A U112C  1.28
2. A46C C72A U112C C124U  1.22
3. G45A A121U  1.1
4. A46G G77C C97U C124G  0.934
5. G47A A84C A121C  0.928
6. G44U A121G  0.89
7. G44U C72U A121U  0.777
8. A46C G71U U87A C123U U132A  0.774
9. G45U C56U A121U  0.651
10. G45U C76G U112A A121U  0.648
11. G45C C53U U78A U112C  0.64
12. G45U C124G U133A  0.519
13. G44U U112A  0.425
14. A46G G61A  0.179
15. G45A C94U G120C  0.045
16. G45C A119G U131G U132A  0.0169
17. G45U C114A  -0.0443
18. G45A A50U U130C  -0.0855
19. G44U G58C  -0.197
20. G44U C82U U106G G120A  -0.344
21. A46U G48A U87A G120A U129C  -0.344
22. G44U C72G G120C  -0.514
23. G45U G57U C73G U78A C94A A119G  -0.559
24. A46G G63C A84G C88U C124U  -0.641
25. A46U G61U  -0.648
26. G45U G120U  -0.652
27. G45A G61A G110U U125C  -0.661
28. G44U A118U  -0.733
29. A46G C56A U133G  -0.786
30. G45C C53G C73A  -0.795
31. G44C C53G G61A  -0.806
32. A46U C56U  -0.82
33. G45A C49G G60U U106C U112A  -0.821
34. A46U G122U  -0.865
35. A46U C53A  -0.885
36. G47A C88U  -0.911
37. G47A C49U  -0.915
38. A46U C73A C123G G127A  -0.933
39. G45A C53G C64U  -0.958
40. A46U G57U U132A  -0.968
41. A46G C53U  -1.01
42. A46C C49G C73U  -1.01
43. A46U A84C  -1.04
44. G44U G71U  -1.06
45. G45C C53A G120A U129G  -1.07
46. A46U C73U  -1.08
47. G45A C82A  -1.1
48. G45U G60C C88G  -1.14
49. G44C C89U  -1.15
50. A46U C56A G93A G120A C123U  -1.16
51. A46U G60A C80A A121G  -1.19
52. A46U A84U  -1.28
53. G45A G110A  -1.34
54. G44U A75U U92C  -1.34
55. A46C C73G U87C  -1.35
56. G45A G52C  -1.37
57. G45A G63A  -1.39
58. A46C G47A C53A U78C  -1.4
59. G45C U132C  -1.51
60. G45U C82U  -1.52
61. G44C C49U C88A C124U  -1.53
62. A46U C64U C101U U132C  -1.55
63. G45U G77U U132C  -1.59
64. G44C C85U U92A C124U U133C  -1.63
65. A46U A100U  -1.69
66. G45U C114U A121U  -1.71
67. G45U G58A G77A C82A  -1.74
68. G45A C98U  -1.75
69. G44U C82G  -1.77
70. A46C G48A G51A U87G C123A  -1.77
71. G47A A95C  -1.79
72. G44C G47U  -1.8
73. G45C C82U G93A C101U  -1.84
74. G45U U132A  -1.91
75. G44U C49A A50C C72A  -1.95
76. A46U A91G  -1.96
77. G44C G63U  -1.98
78. G44U G63U  -2.03
79. G45A C85U C94A  -2.05
80. G44C A95C  -2.1
81. A46U C73G  -2.11
82. G45C U55A C56A  -2.11
83. G44U A50C C73U U92C  -2.12
84. G47A C85U C101U  -2.15
85. G45A U78C C86A G120U  -2.19
86. A46C C72G  -2.19
87. A46U G58C C70A  -2.22
88. G45C C62A  -2.24
89. G47A G48A A118G  -2.29
90. A46C C72G G135U  -2.4
91. G47A G58A C62U C101U A108G  -2.41
92. A46C C114U  -2.43
93. A46C C56A G110U  -2.45
94. G44U U125A U131A  -2.47
95. A46U U55C A95C  -2.5
96. G45C G51A U78A C123G  -2.51
97. A46G G61A C80U C94U  -2.56
98. G44U C62U G63C  -2.59
99. G44C C86U U96G U129C  -2.63
100. A46U U106G  -2.72
101. G45C G69A U87C U130C  -2.8
102. A46U C101A U130G  -2.84
103. G47A C102U  -2.85
104. G44C A95U G110A  -2.88
105. G44C C80U C88A  -2.94
106. A46U C73G G77U C101A C104U  -2.96
107. G44C G113C  -3.05
108. G44C C98U U126C  -3.05
109. A46U G93A G120A G122A  -3.08
110. G45U G60A C82G C85G G117A  -3.09
111. G45A G63A A95G C101G U130C  -3.14
112. A46G G113A G120U U133A  -3.17
113. A46G A91C G93A  -3.21
114. G44C C49U C114U  -3.24
115. A46C G52U C88A G110A A118G U126C  -3.39
116. G45A C53A U109G G110U A121U  -3.48
117. G45A U55C C62A C89G  -3.49
118. A46U A91C C115G  -3.55
119. A46U G47A A50G G60A  -3.56
120. G44U C114G  -3.66
121. G44U G45A U54A C72G  -3.66
122. G45C G93U  -3.67
123. G45U G113U  -3.73
124. G45U C70U A119U G127A  -3.74
125. A46U C114G  -3.78
126. G45U C114G  -3.8
127. G44C C70A U96A  -3.81
128. A46C G63U U106A G117A  -3.84
129. A46G C53U C89U G128A  -3.9
130. A46G C70G C94U  -3.9
131. A46C C56A A91U C97U  -3.95
132. A46G A108G G117A  -4.03
133. G45A U55C C70U G128A  -4.09
134. A46G U54G C62G U78C C123U  -4.11
135. G47A C62G C72U  -4.13
136. G44C G77U C86A  -4.13
137. A46U C56A C72G G93A G120A C123U  -4.15
138. A46U G48A G128A  -4.23
139. G45C U55C A75U A95G U126A U129A  -4.26
140. G45U A105C  -4.28
141. G45U A66C G93C U96C C115A  -4.28
142. G45A C99U  -4.32
143. G47A G51C G63U C115A G120U U131G  -4.36
144. A46U A74C C88G  -4.4
145. A46U C53A A111U  -4.45
146. G45U A50U G52U G58A  -4.49
147. A46C C56A C73A A91U C97U  -4.49
148. G44U C114A U116G  -4.56
149. A46C G113A G128A  -4.59
150. G45U G47C C85A C88U  -4.69
151. G44U C56G G61U C89A C94G G122A  -4.78
152. G47A A50U A91C  -4.79
153. G45U C56G C73A U116C  -4.92
154. A46G C88U C97A  -5.17
155. G44U C53A G69C A105U  -5.22
156. G45U C101A C102U  -5.42
157. A46U G107U  -5.66
158. A46U C79A C115G  -5.77
159. A46G G61C G69U C97A A111U  -5.77
160. G45A C62U C115U U116C U126A G128C  -5.86
161. G44U G65A  -6.04
162. G45A C64G A68C C104A G117U  -6.22
163. A46U C64U U81G  -6.35
164. G47A C79U A100U A111U G120A U125G U131A U132C  -6.42
165. A46G G58C C99U C114G  -6.59
166. A46C G60C A68U  -7.2
167. G44C U54A A105G G117U U129A U133A  -7.26
